In paper PMC3127752 one finds binding data, which are given here for one sequence.

Data set [1] concerns the target T1, SO2426sh (Shewanella oneidensis MR-1) (UniProt Q8EEF6).
T1 sequence: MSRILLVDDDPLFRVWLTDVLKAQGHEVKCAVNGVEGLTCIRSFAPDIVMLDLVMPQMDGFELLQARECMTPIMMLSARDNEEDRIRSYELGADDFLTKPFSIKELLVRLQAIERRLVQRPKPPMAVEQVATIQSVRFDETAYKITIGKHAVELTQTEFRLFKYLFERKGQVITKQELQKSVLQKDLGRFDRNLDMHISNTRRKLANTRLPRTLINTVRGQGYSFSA
Kind of data set: EMSA. The settings on record: DIG-11-dUTP incorporated (dTTP:DIG-dUTP 1:6 mix), 0.5X EMSA buffer [5 mM Tris-Cl pH 8.0, 75 mM KCl, 0.05 mM DTT, 0.05 mM EDTA, 6% glycerol], 5 mM MgCl2, 20 mM acetyl phosphate, 0.2 ug/ul poly(dI:dC).

For data set [2], the system named is T2, SO2426 (Shewanella oneidensis MR-1), ORF:71750797.
T2 sequence: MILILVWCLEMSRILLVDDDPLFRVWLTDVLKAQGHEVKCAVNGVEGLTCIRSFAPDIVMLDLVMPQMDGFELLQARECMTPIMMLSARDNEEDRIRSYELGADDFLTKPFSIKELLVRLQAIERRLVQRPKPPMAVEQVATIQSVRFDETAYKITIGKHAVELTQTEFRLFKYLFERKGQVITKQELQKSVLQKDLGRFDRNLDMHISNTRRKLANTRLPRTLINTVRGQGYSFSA
Kind of data set: EMSA. The note with it: DIG-11-dUTP incorporated (dTTP:DIG-dUTP 1:6 mix), 0.5X EMSA buffer [5 mM Tris-Cl pH 8.0, 75 mM KCl, 0.05 mM DTT, 0.05 mM EDTA, 6% glycerol], 5 mM MgCl2, 20 mM acetyl phosphate, 0.2 ug/ul poly(dI:dC).

For “TTCGTCGTTGTAGTGAACCTGTAACAGCAAATCAGACGGAAAAATTTCTATTTAGCAACACAATGGAATGACTTACACGGCA (double strand) [so3030 upstream 83-bp probe]”, the binding result in data set [1] and in data set [2] was “binds” in each case.
